The source of these data is publication doi:10.1101/2023.03.23.533910 (bioRxiv, 2023).

The data set concerns the molecule itself. Kind of data set: native gel or EMSA.

B1: 3xHA-tagged SNC1 (natural protein, Arabidopsis thaliana, UniProt O23530 1-1437, looked up)
chain: MMDTSKDDDMEIASSSGSRRYDVFPSFRGEDVRDSFLSHLLKELRGKAITFIDDEIERSRSIGPELLSAIKESRIAIVIFSKNYASSTWCLNELVEIHKCYTNLNQMVIPIFFHVDASEVKKQTGEFGKVFEETCKAKSEDEKQSWKQALAAVAVMAGYDLRKWPSEAAMIEELAEDVLRKTMTPSDDFGDLVGIENHIEAIKSVLCLESKEARIMVGIWGQSGIGKSTIGRALYSKLSIQFHHRAFITYKSTSGSDVSGMKLRWEKELLSEILGQKDIKIEHFGVVEQRLKQQKVLILLDDVDSLEFLKTLVGKAEWFGSGSRIIVITQDRQLLKAHEIDLIYEVEFPSEHLALTMLCRSAFGKDSPPDDFKELAFEVAKLAGNLPLGLSVLGSSLKGRTKEWWMEMMPRLRNGLNGDIMKTLRVSYDRLHQKDQDMFLYIACLFNGFEVSYVKDLLKDNVGFTMLTEKSLIRITPDGYIEMHNLLEKLGREIDRAKSKGNPGKRRFLTNFEDIHEVVTEKTGTETLLGIRLPFEEYFSTRPLLIDKESFKGMRNLQYLEIGYYGDLPQSLVYLPLKLRLLDWDDCPLKSLPSTFKAEYLVNLIMKYSKLEKLWEGTLPLGSLKEMNLRYSNNLKEIPDLSLAINLEELDLVGCKSLVTLPSSIQNATKLIYLDMSDCKKLESFPTDLNLESLEYLNLTGCPNLRNFPAIKMGCSDVDFPEGRNEIVVEDCFWNKNLPAGLDYLDCLTRCMPCEFRPEQLAFLNVRGYKHEKLWEGIQSLGSLEGMDLSESENLTEIPDLSKATKLESLILNNCKSLVTLPSTIGNLHRLVRLEMKECTGLEVLPTDVNLSSLETLDLSGCSSLRSFPLISTNIVWLYLENTAIEEIPSTIGNLHRLVRLEMKKCTGLEVLPTDVNLSSLETLDLSGCSSLRSFPLISESIKWLYLENTAIEEIPDLSKATNLKNLKLNNCKSLVTLPTTIGNLQKLVSFEMKECTGLEVLPIDVNLSSLMILDLSGCSSLRTFPLISTNIVWLYLENTAIEEIPSTIGNLHRLVKLEMKECTGLEVLPTDVNLSSLMILDLSGCSSLRTFPLISTRIECLYLQNTAIEEVPCCIEDFTRLTVLMMYCCQRLKTISPNIFRLTRLELADFTDCRGVIKALSDATVVATMEDHVSCVPLSENIEYIWDKLYRVAYLQEHFSFRNCFKLDRDARELILRSCFKPVALPGEEIPKYFTYRAYGDSLTVIVPQSSLSQNFLRFKACVVVEPLSKGKGFYPFLKVNVGFNGKQYQKSFSKDAELELCKTDHLFFCSFKFRSEDLPSKLNFNDVEFKFCCSNRIKECGVRLMYVSQEENNQQTTRSEKRMRMTSGTSEEDINLPYGLIVADTGLAALNMELSLGQGEPSSSTSLEGEALCVDYMITEEQDKGIPILFPVSGN
Turning to B1, the “stoichiometry N” value is around 4.

For orientation: stoichiometry N means the number of molecules, sites or subunits per partner or assembly.
